Data published in publication PMC3400432 (Developmental Cell, 2012).

B2: Delta-like 1 (Dll1) (ligand, UniProt P97677 18-714, looked up)
chain: QVWSSGVFELKLQEFVNKKGLLGNRNCCRGGSGPPCACRTFFRVCLKHYQASVSPEPPCTYGSAVTAVLGVDSFSLPDGAGIDPAFSNPIRFPFGFTWPGTFSLIIEALHTDSPDDLATENPERLISRLTTQRHLTVGEEWSQDLHSSGRTDLRYSYRFVCDEHYYGEGCSVFCRPRDDAFGHFTCGERGEKMCDPGWKGQYCTDPICLPGCDDQHGYCDKPGECKCRVGWQGRYCDECIRYPGCLHGTCQQPWQCNCQEGWGGLFCNQDLNYCTHHKPCRNGATCTNTGQGSYTCSCRPGYTGANCELEVDECAPSPCRNGGSCTDLEDSYSCTCPPGFYGKVCELSAMTCADGPCFNGGRCSDNPDGGYTCHCPAGFSGFNCEKKIDLCSSSPCSNGAKCVDLGNSYLCRCQTGFSGRYCEDNVDDCASSPCANGGTCRDSVNDFSCTCPPGYTGRNCSAPVSRCEHAPCHNGATCHQRGQRYMCECAQGYGGANCQFLLPEPPPDLIVAAQGGSFPWVAVCAGVVLVLLLLLGCAAVVVCVRLKLQKHQPPPDPCGGETETMNNLANCQREKDVSVSIIGATQIKNTNKKADFHGDHGADKSSFKARYPTVDYNLIRDLKGDEATVRDAHSKRDTKCQSQGSVGEEKSTSTLRGGEVPDRKRPESVYSTSKDTKYQSVYVLSAEKDECVIATEV
B3: epsin1-Venus (natural protein, rat, UniProt O88339 1-575, looked up)
chain: MSTSSLRRQMKNIVHNYSEAEIKVREATSNDPWGPSSSLMSEIADLTYNVVAFSEIMSMIWKRLNDHGKNWRHVYKAMTLMEYLIKTGSERVSQQCKENMYAVQTLKDFQYVDRDGKDQGVNVREKAKQLVALLRDEDRLREERAHALKTKEKLAQTATASSAAVGSGPPPEAEQAWPQSSGEEELQLQLALAMSKEEADQPPSCGPEDDVQLQLALSLSREEHDKEERIRRGDDLRLQMAIEESKRETGGKEESSLMDLADVFTTPAPPQASDPWGGPASVPTAVPVAAAASDPWGAPAVPPAADPWGGAAPTPASGDPWRPAAPTGPSVDPWGGTPAPAAGEGPTSDPWGSADGGAPVSGPPSSDPWAPAPAFSDPWGGSPAKPSSNGTAVGGFDTEPDEFSDFDRLRTALPTSGSSTGELELLAGEVPARSPGAFDMSGVGGSLAESVGSPPPAATPTPTPPTRKTPESFLGPNAALVDLDSLVSRPGPTPPGAKASNPFLPSGAPATGPSVTNPFQPAPPATLTLNQLRLSPVPPVPGAPPTYISPLGGGPGLPPMMPPGPPAPNTNPFLL

Legend:
Assay in all cases: co-IP
Myc-epsin1 = biological target: T1, Myc-epsin1 (UniProt O88339 1-575)
T1 sequence (looked up): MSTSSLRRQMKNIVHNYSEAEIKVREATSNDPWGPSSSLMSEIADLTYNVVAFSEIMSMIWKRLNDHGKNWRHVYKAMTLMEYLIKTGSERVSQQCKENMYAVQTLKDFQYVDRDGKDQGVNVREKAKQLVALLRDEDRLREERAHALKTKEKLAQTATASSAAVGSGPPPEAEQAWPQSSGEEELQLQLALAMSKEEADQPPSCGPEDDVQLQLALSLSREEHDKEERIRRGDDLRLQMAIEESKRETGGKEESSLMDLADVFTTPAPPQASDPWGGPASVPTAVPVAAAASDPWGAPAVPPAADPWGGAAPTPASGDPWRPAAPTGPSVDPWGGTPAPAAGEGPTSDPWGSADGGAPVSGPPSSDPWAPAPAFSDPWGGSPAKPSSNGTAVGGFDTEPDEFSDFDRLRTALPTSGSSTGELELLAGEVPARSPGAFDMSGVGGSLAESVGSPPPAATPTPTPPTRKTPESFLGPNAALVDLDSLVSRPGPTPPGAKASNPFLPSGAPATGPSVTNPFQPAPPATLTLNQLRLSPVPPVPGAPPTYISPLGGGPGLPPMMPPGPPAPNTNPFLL

epsin1-Venus = biological target: B3
Delta-like 1 (Dll1) = biological target: B2

B1: Dll1 expressed in 293T cells (ligand, UniProt P97677 18-714, looked up)
chain: QVWSSGVFELKLQEFVNKKGLLGNRNCCRGGSGPPCACRTFFRVCLKHYQASVSPEPPCTYGSAVTAVLGVDSFSLPDGAGIDPAFSNPIRFPFGFTWPGTFSLIIEALHTDSPDDLATENPERLISRLTTQRHLTVGEEWSQDLHSSGRTDLRYSYRFVCDEHYYGEGCSVFCRPRDDAFGHFTCGERGEKMCDPGWKGQYCTDPICLPGCDDQHGYCDKPGECKCRVGWQGRYCDECIRYPGCLHGTCQQPWQCNCQEGWGGLFCNQDLNYCTHHKPCRNGATCTNTGQGSYTCSCRPGYTGANCELEVDECAPSPCRNGGSCTDLEDSYSCTCPPGFYGKVCELSAMTCADGPCFNGGRCSDNPDGGYTCHCPAGFSGFNCEKKIDLCSSSPCSNGAKCVDLGNSYLCRCQTGFSGRYCEDNVDDCASSPCANGGTCRDSVNDFSCTCPPGYTGRNCSAPVSRCEHAPCHNGATCHQRGQRYMCECAQGYGGANCQFLLPEPPPDLIVAAQGGSFPWVAVCAGVVLVLLLLLGCAAVVVCVRLKLQKHQPPPDPCGGETETMNNLANCQREKDVSVSIIGATQIKNTNKKADFHGDHGADKSSFKARYPTVDYNLIRDLKGDEATVRDAHSKRDTKCQSQGSVGEEKSTSTLRGGEVPDRKRPESVYSTSKDTKYQSVYVLSAEKDECVIATEV
With B1 as the binder, how does the “fold decrease of the co-IP with PAR-1T560A-eGFP” value (Myc-epsin1) read?
Its value is 2 fold.

With B2 as the binder, how does the “fold increase of the co-IP, cells on N1Fc- against Fc-coated dishes” value (epsin1-Venus) read?
Its value is 1.9 fold.

Which “fold increase of the co-IP, cells on N1Fc- against Fc-plates” value (Delta-like 1 (Dll1)) does the source give for B3 here?
Its value is 1.8 fold.
